In patent US8252764B2, “Compositions and methods of use of targeting peptides against placenta and adipose tissues” (priority 2000, dated 2012):
Read-outs that look alike come from different tables or passages of the source.

Legend:
[1] = system: mouse villous yolk sac (vys); assay: Peptide localization in placenta (immunohistochemistry, FITC immunofluorescence); type: in vivo; conditions: 18 dpc pregnant mice, intravenous, 6 h
Description: Fusion and Recombinant Peptides Carboxyfluorescein (FITC)-conjugated [sequence] […] The FITC-peptide stocks were made by dissolving lyophilized peptides in DMSO to a concentration of 20 mM, after which the peptides were diluted to 1 mM with PBS (phosphate buffered saline) and aliquots were frozen until use. The [sequence] (SEQ ID NO:144) peptide and an unrelated control peptide, [sequence] (SEQ ID NO:87), fused in-frame with GST at the amino-terminus were purified to approximately 90% purity using the BugBuster GST Bind Kit (Novagen, Madison, Wis.). Purified peptides were buffer-exchanged into PBS using Centricon PL-10 columns (Millipore, Bedford, Mass.) and the aliquots were frozen until use. […]
Peptide Localization in Tissues Immunohistochemistry on sections of formalin-fixed, paraffin-embedded mouse tissue was performed as described (Pasqualini et al., 2000; Pasqualini and Ruoslahti, 1996): For phage-peptide immunolocalization, a rabbit anti-fd phage antibody (Sigma Chemicals, St. Louis, Mo.) was used at 1:1,000 dilution and detected with a secondary horseradish peroxidase (HRP)-conjugated antibody. For GST-peptide immunolocalization, a goat anti-GST antibody (Amersham, Piscataway, N.J.) was used at 1:1,000 dilution and detected with a secondary alkaline phosphatase (AP)-conjugated antibody. […]

[2] = system: placenta
From the text: The CARAC peptide (SEQ ID NO:12), an adipose targeting peptide (FE, TREVHRS, SEQ ID NO:13) or fd-tet phage were used as non-placental targeting controls.

[3] = system: white adipose vasculature; assay: Peptide localization in white fat; type: in vivo, mouse; conditions: intravenous
From the text: (A) and (B) Anti-phage immunohistochemistry in paraffin sections of subcutaneous white fat from leptin-deficient mice intravenously injected 6 hr prior to tissue processing. (C) and (D) Peptide-FITC immunofluorescence in paraffin sections of subcutaneous white fat from leptin-deficient mice intravenously injected 6 hr prior to tissue processing. […] (SEQ ID NO:22) linked to FITC peptide, or (D) control. CARAC (SEQ ID NO:12) linked to FITC peptide. […] Bar: 10 μm.
(A), (C) and (E) Peptide-FITC immunofluorescence or (B), (D) and (F) lectin-rhodamine immunofluorescence in blood vessels of (A), (B), (E) and (F) subcutaneous white fat or (C) and (D) pancreas controls detected in paraffin-sectioned tissues from c57bl/6 mice intravenously co-injected 5 min prior to tissue processing. […] (SEQ ID NO:22) linked to FITC peptide and lectin-rhodamine; or (E) and (F) control CARAC (SEQ ID NO:12) linked to FITC peptide and lectin-rhodamine; (B), (D) and (F) Arrows show endothelium marked with lectin. […] Bar: 10 μm.
Staining of formalin-fixed, paraffin-embedded mouse tissue sections was performed (Pasqualini & Rouslahti, 1996; Pasqualini et al., 2000). For phage-peptide immunolocalization, 10^10 TU of [sequence] […] Apoptosis was detected using standard TUNEL immunohistochemistry and an HRP-conjugated antibody. […]

[4] = system: MDA-MB-435-derived tumor xenografts; assay: In vivo tumor homing of APA-binding phage; parameters: species or system mouse
Description: FIG. 31. APA-binding phage specifically bind tumors. Equal amounts of phage were injected into the tail veins of mice bearing MDA-MB-435-derived tumors and phage were recovered after perfusion. Mean values for phage recovered from the tumor or control tissue (brain) and the standard error from triplicate platings are shown.
MDA-MB-435-derived tumor xenografts were established in female nude mice 2 months old (Jackson Labs, Bar Harbor, Me.). Mice were anesthetized with Avertin and injected intravenously through the tail vein with 10^9 TU of the phage in a 200 μl volume of DMEM. The phage were allowed to circulate for 5 min, and the animals were perfused through the heart with 5 ml of DMEM. The tumor and brain were dissected from each mouse, weighed, and equal amounts of tissue were homogenized. The tissue homogenates were washed three times with ice-cold DMEM containing a proteinase inhibitor cocktail and 0.1% BSA. Bound phage were rescued and counted as described for cell panning. Fd-tet phage was injected at the same input as a control. The experiment was repeated twice. In parallel, part of the same tissue samples were fixed in Bouin solution, and imbedded in paraffin for preparation of tissue sections. An antibody to M-13 phage (Amersham-Pharmacia) was used for the staining.

[5] = system: placenta; assay: Peptide embryotoxicity in pregnant mice; type: in vivo, mouse
From the text: FIG. 7. TPKTSVT (SEQ ID NO:5) peptide inhibits mouse pregnancy and is teratogenic. (A) Pregnancy courses (representative from 5 independent experiments) in mice subcutaneously injected with the indicated phage or peptides were monitored by daily weighing of the mice upon each injection (arrows). (B) Appearance of a normally developed 20 dpc embryo (left) for control GST fusion treatment compared to a representative 20 dpc embryo (right) resulting from TPKTSVT (SEQ ID NO:5) linked to GST fusion treatment. A severely teratogenic phenotype is observed with the placental targeting fusion peptide. (C) and […]) Hematoxylin/eosin staining of 20 dpc paraffin-embedded placentas derived from mice injected for 7 days with (C) control GST fusion or (D) the TPKTSVT (SEQ ID NO:5) linked to GST fusion peptide. Note hemorrhage (black asterisks), necrosis (white asterisks), and fibrosis (arrowheads). Bar: 500 μm (50 μm for insets).
Peptide Embryotoxicity For peptide embryotoxicity studies, agents were injected at the following daily doses: GST-peptides 0.1 mg (˜3 nMoles), FITC-peptides 50 μg (˜30 nMoles),and phage-peptides 10″ TU. All agents were dissolved in PBS. Mice were injected subcutaneously in the back (5-10 injections per course).
The phage or fusion peptides were subcutaneously injected and the progression of pregnancy was compared with mice injected with control phage, control peptides, or saline. Multiple injections of the TPKTSVT (SEQ ID NO:5) peptide were administered, starting at mid-pregnancy (˜12 days postconception, dpc) in doses non-toxic to the mother.

[6] = system: placental transporter; assay: Phage recovery from embryos (materno-fetal transfer); type: in vivo, mouse; conditions: excess of co-injected peptide
Description: FIG. 4. The TPKTSVT (SEQ ID NO:5) peptide specifically binds a placental transporter. (A) Recovery of indicated phage from embryos carried by 18 dpc pregnant mice intravenously injected (tail vein) with 10^10 TU of the indicated phage 6 h prior to phage recovery or immunohistochemistry. […] TPKTSVT (SEQ ID NO:5) phage were administered alone (dark cross-hatched) or co-administered with control-GST (black) or TPKTSVT (SEQ ID NO:5) linked to GST (white bar). Shown are mean+/−SEM (standard error) from different embryos. (B-D) Anti-phage IMP immunohistochemistry (arrowheads) in paraffin sections of the vys from the corresponding mice, as indicated. Asterisks mark embryonic capillaries. Bar: 20 μm.
Phage Recovery Mouse placentas and embryonic livers were individually weighed, ground with a glass Dounce homogenizer and suspended in 1 ml of Dulbecco's Modified Eagle's Medium (DMEM) containing proteinase inhibitors (DMEM-prin—1 mM PMSF, 20 μg/ml aprotinin, and 1 μg/ml leupeptin). The suspension was vortexed and washed three times with DMEM-prin. […]
The TPKTSVT (SEQ ID NO:5) Peptide Binds to a Placental Transporter The TPKTSVT (SEQ ID NO:5) peptide localizes to the vys (FIG. 3), which is the tissue primarily responsible for materno-fetal transport in mice. […] Either TPKTSVT (SEQ ID NO:5)-phage or control phage were injected into pregnant mice and the recovery of phage from embryos was determined.

[7] = target: T1, β5 integrin (Homo sapiens, UniProt P18084); assay: Annexin V binding to GST-β5 integrin cytoplasmic domain (ELISA, competition)
T1 construct: Plates were coated with GST fusion proteins of the cytoplasmic domains of various integrins
T1 sequence (P18084 743-799 limits assumed): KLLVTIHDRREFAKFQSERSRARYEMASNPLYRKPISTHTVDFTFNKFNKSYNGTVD
Description: FIG. 29A. Competitive binding of Annexin V to β5 integrin with VISY peptide. Binding assays were performed by ELISA.
Competitive binding assays were performed to examine the binding of Annexin V to β5 integrin and the effect of the VISY peptide. Plates were coated with GST fusion proteins of the cytoplasmic domains of various integrins and Annexin V was added to the plates. Binding of Annexin V was determined using anti-Annexin V antibodies. […] Calcium was used because Annexin V activity has been reported to be modulated by calcium. Binding of Annexin V to GST-β5 was blocked by addition of the VISY peptide (FIG. 29A).
A reciprocal study was performed, using Annexin V to coat plates and adding GST fusion proteins of integrin cytoplasmic domains. Binding was assessed using anti-GST fusion protein antibodies. […] In some studies, calcium ion appeared to interfere with the binding interaction between GST-β5 and Annexin V, with decreased binding observed in the presence of calcium (not shown).

[8] = system: HUVEC cells; assay: Apoptosis assay in HUVEC (propidium iodide, chromatin fragmentation); type: cell-based, human; conditions: 10^6 HUVEC, 15 μM, 2-4 hours
Description: FIG. 26. Penetratin peptide chimera binding to the β5 cytoplasmic domain induces programmed cell death. 10^6 HUVEC cells were harvested in complete media and 15 μM penetratin peptide chimeras were added to the cells. […] (a) Profile obtained with starved cells after 24 h. (b) Confluent cells in complete media. (c) 15 μM of penetratin after four hours. (d) 15 μM of VISY-penetratin chimera after four hours.
FIG. 30. Chimeric peptide containing VISY peptide linked to penetratin (antennapedia) induces apoptosis. VISY induced apoptosis was inhibited by addition of a caspase inhibitor (zVAD).
Approximately 1×10^6 cells were harvested in complete media and 15 AM of peptide added for 4, 8, or 12 h. The cellswere then washed in PBS and resuspended in 0.5 ml propidium iodide solution (50 μg/ml PI, 0.1% Triton X-100, 0.1% sodium citrate). After a 24-h incubation at 4° C., cells were counted with a XL Coulter (Coulter Corporation) with a 488-nm laser; 12,000 cells were counted for each histogram, and cell cycle distributions were analyzed with Multicycle program.
Approximately 1×10^6 cells were harvested in complete medium, and 15 μM of peptide was added for 4, 8, or 12 hours. The cells were then washed in PBS and resuspended in 0.5 ml propidium iodide solution (50 μg/ml PI, 0.1% Triton X-100, 0.1% sodium citrate). After a 24-h incubation at 4° C., the cells were counted with an XL Coulter (Coulter Corporation) with a 488 nm laser; 12,000 cells were counted for each histogram, and cell cycle distributions were analyzed with the Multicycle program.
10^6 HUVEC were treated with 15 μM of VISY antennapedia (penetratin) chimera or 15 μM of antennapedia peptide (pentratin) alone for 2-4 hours and chromatin fragmentation was analyzed by electrophoresis in an agarose gel.

[9] = system: mouse spleen; assay: Testing Fab clones in vivo with BRASIL; conditions: 5 minutes circulation
[10] = system: mouse spleen cells; assay: Testing Fab clones in vitro using BRASIL; type: cell-based; conditions: for binding to mouse spleen cells compared to Fd-tet control: BRASIL, FIG. 13; for binding to mouse spleen cells compared to NPC-3TT: FIG. 14
Description: FIG. 13. Spleen targeting in vitro using BRASIL. Binding of Fab clones #2, #6, #10, #12 and control Fab clone NPC-3TT were directly compared to each other.
A singe cell suspension was prepared from two mouse spleens. The suspension was divided into five tubes and incubated on ice with 3×10^9 TU of Fab clones #2, #6, #10, #12 and 2×10^9 TU tet-phage. Phage bound to mouse spleen cells were recovered by BRASIL. 200 μl of log phase ER2537 E.coli was infected with the pellet and serial dilutions were plated on LB/carbenicillin and LB/tetracycline plates for assessment of phage binding. Fd-tet was used as an internal control to normalize all the phage homing experiments.

[11] = FITC conjugates-I, 1 mouse iv (predominantly) or ip ~every other day, day 1-day 18, 9 times, Total 450 mM (~450 μg)
[12] = FITC conjugates-II, 1 mouse sc (predominantly) or iv ~every other day, day 4-day 17, 10 times, Total 1M (~1 mg)

Question: Which results are given for “CARAC-FITC: FITC-conjugated control peptide CARAC (SEQ ID NO:12)”?
Answer: localization in placenta [1]: not detectable in the placenta; Peptide Effect on Embryo [2, 11]: No effect; Pregnancy Outcome [2, 11]: Delivery: 18 d, 5 normal pups; Peptide Effect on Embryo [2, 12]: Slight toxicity?; Pregnancy Outcome [2, 12]: Delivery: 20 d, 5 pups, 1-dead; localization in white fat of wild-type mice ([3]; C57BL/6 (leptin+/+) mice, co-injected lectin-rhodamine): not detectable in white fat vasculature; localization in white fat of ob/ob mice ([3]; leptin-deficient mice): undetectable in adipose tissue

Question: How did the “anti-M13 immunostaining on tissue sections” value ([4]; not shown) turn out when CPKVCPRECESNC was run?
Answer: Strong phage staining was apparent in tumor vasculature but not in normal vasculature

Question: And the “phage enrichment in tumor xenografts compared to brain tissue” value ([4]; nude mice, 10^9 TU iv, 5 min)?
Answer: 4 fold

Question: How did the “toxicity to the mother” value ([5]; data not shown) turn out when TPKTSVT [placenta targeting peptide] was run?
Answer: no signs of peptide toxicity to the mother were observed

Question: What about the “histopathological examination of the placentas” value ([5]; seven days of peptide administration) of the same molecule?
Answer: massive dilation of blood vessels and intraplacental bleeding, as well as widespread hemorrhagic necrosis

Question: And the “effect on materno-fetal transfer / vys uptake of TPKTSVT-phage on co-injection” value [6]?
Answer: blocked

Question: For VVISYSMPD, which “inhibition of Annexin V binding to GST-β5” value ([7]; in the absence of calcium) is on record?
Answer: 45%

Question: What about the “inhibition of Annexin V binding to GST-β5” value ([7]; in the presence of calcium) of the same molecule?
Answer: 67%

Question: What about the “induction of apoptosis (chromatin fragmentation)” value [8] of the same molecule?
Answer: Neither VISY nor penetratin alone induced apoptosis

B1: Fab clone #6: chicken anti-mouse spleen Fab phage clone selected by BRASIL (protein)
chain: CQPAMAAVTLDESGGGLQTPGGTLSLVCKASGISIGYGMNWVRQAPGKGLEYVASISGDGNFAHYGAPVKGRATISRDDGQNTVTLQLNNLR
Question: With B1 as the molecule, how does the “binding / localization to spleen compared to Fd-tet phage” value [9] read?
Answer: many-fold increased binding to spleen

Question: And the “binding to mouse spleen cells compared to Fd-tet control” value (“binding … compared to Fd-tet control” for short) [10]?
Answer: lowest degree of binding

Question: And the “binding to mouse spleen cells compared to NPC-3TT” value (“binding … compared to NPC-3TT” for short) [10]?
Answer: only slightly higher than the binding of phage NPC-3TT

B2: Fab clone #12: chicken anti-mouse spleen Fab phage clone selected by BRASIL (protein)
chain: ANQPWPPLTLDESGGGLQTPGGALSLVCKASGFTMSSYDMFWVRQAPGKGLEFVAGISSSGSSTEYGAAVKGRATISRDNGQSTVRLQLNNLRAED
Question: With B2 as the molecule, how does the “binding / localization to spleen compared to Fd-tet phage” value [9] read?
Answer: did not exhibit significantly elevated binding to mouse spleen

Question: And the “binding … compared to Fd-tet control” value [10]?
Answer: selective binding to mouse spleen cells

Question: And the “binding … compared to NPC-3TT” value [10]?
Answer: only slightly higher than the binding of phage NPC-3TT

B3: Fab clone #2: chicken anti-mouse spleen Fab phage clone selected by BRASIL (protein)
chain: CQPAMAAVTLDESGGGLQTPGGALSLVCKASGFTFNSYPMGWVRQAPGKGLEWVAVISSSGTTWYAPAVKGRATISRDNGQSTVRLQLSNLRAED
Question: With B3 as the molecule, how does the “binding / localization to spleen compared to Fd-tet phage” value [9] read?
Answer: many-fold increased binding to spleen

Question: And the “binding … compared to Fd-tet control” value [10]?
Answer: at least a two-fold increased binding

Question: And the “binding … compared to NPC-3TT” value [10]?
Answer: highest levels of binding to mouse spleen cells
